Experimental findings from paper PMC7367192 are described below.

Data set [1] deals with vWF A1 domain R1392A/R1395A/R1399A (UniProt P04275). Put plainly: MST. The settings on record: MST: PBS (162 mM ionic strength), optionally +150 mM NaCl; EMSA: 0.5x TA (20 mM ionic strength), +10 or +40 mM NaCl; FCS after shear at 2000-4000 s-1; pH and ….
Another data set deals with vWF A1 domain (UniProt P04275). Put plainly: MST. The settings on record: MST: PBS (162 mM ionic strength), optionally +150 mM NaCl; EMSA: 0.5x TA (20 mM ionic strength), +10 or +40 mM NaCl; FCS after shear at 2000-4000 s-1; pH and …. In general terms: In EMSA bound probe runs differently from free probe, usually more slowly.
In the next data set the target is wt vWF multimer (UniProt P04275). Put plainly: FCS. The settings on record: MST: PBS (162 mM ionic strength), optionally +150 mM NaCl, EMSA: 0.5x TA (20 mM ionic strength), +10 or +40 mM NaCl, FCS after shear at 2000-4000 s-1, pH and ….
Data set [2] has as its target eGFP full-length vWF dimer (UniProt P04275). Put plainly: EMSA. The settings on record: fixed dimer 0.47 mg/ml, DNA titrated; MST: PBS (162 mM ionic strength), optionally +150 mM NaCl; EMSA: 0.5x TA (20 mM ionic strength), +10 or +40 mM NaCl; FCS after shear at 2000-4000 s-1; pH and ….

A word on the Kd: it is the concentration at which binding is half-saturated. High values mean lower affinity, low ones higher affinity.

Take “CATAAATCTTTGAATACCAAGTGTTAGAACCATCAACCATATCAACTTCCTTTATACATCTA / CTACATCACTTTCTTCATTATAAAATAAAAGGAAGTTGATATGGTTGATG [23 bp ds DNA]”: the Kd in data set [1] amounted to 30 µM; with vWF A1 domain, 13 µM. For the same sequence, the binding signal was found to be 23 % bound with wt vWF multimer (shear 4000 s-1) and 21 % bound with wt vWF multimer (shear, 2000 s-1?).

In the case of “GGCGTGCAGTGCCTTCGGCCGTGCGGTGCCTCCGTCACGCCTAAAATAAAA [ARC1172 ss DNA]”, the Kd is 0.001 µM in data set [2], 130 µM in data set [1] and 10 µM with vWF A1 domain.
